# Target: recombinant venestatin (Strongyloides venezuelensis)
# Test: ELISA; r-venestatin (4 ug/mL) coated on wells; RAGE or TLR4 (0-4 ug/mL) in buffer A (50 mM Tris-HCl pH 7, 10 mM NaCl, 5 mM CaCl2), ambient temperature, 1 h; detected with anti-RAGE or anti-TLR4 antibodies; KD by Scatchard plot
substance,measurement,value
recombinant human RAGE (receptor for advanced glycation end products) (from UniProt Q15109 23-342),Kd,0.0436 µM

# Source: PMC8205142
